Laboratory results as given in the supplement of paper PMC12042874.
± gives the uncertainty stated by the source.

Experiment: amyloid nucleation score (Sup35N fusion, yeast selection) (log enrichment); library NNK3; higher = more nucleation; inactive = no reads after selection
Procedure, shortened: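 Nucleation score is defined as the DiMSum log enrichment of output over input reads, with centring on the mode score of non-aggregating sequences. A minimum of 100 input reads was required for each sequence. Reads came from Illumina sequencing of plasmid inserts from psi-negative yeast expressing Sup35N fused to peptides of 20 random codons, induced with 100 μM copper sulfate for 24 hours and grown 7 days at 30°C on medium lacking adenine and uracil.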
For DNYMRILGLSYPGDFISNFW, the amyloid nucleation score was “inactive”. With DPIYVANARNHRLS the amyloid nucleation score was “inactive”. With DPKTSYNADLAIGSCLLIDF the amyloid nucleation score was “inactive”. For DPSNACPWGR, the amyloid nucleation score was “inactive”. For DPTSLGRQRLTRDKIPQNWS, the amyloid nucleation score was “inactive”. With DPVNLRC the amyloid nucleation score was “inactive”. With DQEVC the amyloid nucleation score was “inactive”. In the case of DQIYSECLV, the amyloid nucleation score is reported as “inactive”. For DQYLTVSHKTTTFRMCPQSG, the amyloid nucleation score was “inactive”. In the case of DRCNVGRYLG, the amyloid nucleation score is reported as “inactive”. With DRFLLFFH the amyloid nucleation score was “inactive”. In the case of DRGFGYGSITKGINA, the amyloid nucleation score is reported as “inactive”. In the case of DRNEQCDSL, the amyloid nucleation score is reported as “inactive”. In the case of DRRYEGGRKVQSYTVARPWS, the amyloid nucleation score is reported as “inactive”. In the case of DRSIS, the amyloid nucleation score is reported as “inactive”. With DRYDSVYEDGLLLLMFFDHV the amyloid nucleation score was “inactive”. With DSADVMIAYASVVVVTIECC the amyloid nucleation score was “inactive”. For DSCTEVFVKGVTRSVIVGKG, the amyloid nucleation score was “inactive”. For DSFSTDCVFYEIMCSEVRLA, the amyloid nucleation score was “inactive”. For DSHFKVYVPRQLREAREPVK, the amyloid nucleation score was “inactive”. In the case of DSLRWDYRL, the amyloid nucleation score is reported as “inactive”. Substance DSMCRYV has an amyloid nucleation score of 0.893 ± 0.12. With DSNGYKEGVDQNSGAKNTNK the amyloid nucleation score was “inactive”. Work on DSQLFKICGLVCTTYVALCF yielded an amyloid nucleation score of -0.732 ± 0.59. In the case of DSRLSAEYMVRMGKVYIDDS, the amyloid nucleation score is reported as “inactive”. With DSSMIDRAENAH the amyloid nucleation score was “inactive”. With DSVMVYIRFIAMSSPQKG the amyloid nucleation score was “inactive”. In the case of DSYCGLRDEWITRWLGCRWM, the amyloid nucleation score is reported as “inactive”. With DTLYIASYEAVSGLRSPYER the amyloid nucleation score was “inactive”. For DTRGTARKPKSLSTRLEIRV, the amyloid nucleation score was “inactive”. With DTYMISNVAGNSRYALHGFV the amyloid nucleation score was “inactive”. With DVDFPSFAGFMVTISIGIFV the amyloid nucleation score was “inactive”. For DVDRTSCGGVSVRV, the amyloid nucleation score was “inactive”. In the case of DVLLARCYNCLSAFRLNSLC, the amyloid nucleation score is reported as “inactive”. With DVNFSLC the amyloid nucleation score was -0.002 ± 0.32. For DVNGR, the amyloid nucleation score was “inactive”. With DVYSYKFDR the amyloid nucleation score was “inactive”. In the case of DWEARCCREVTGNGVFESQK, the amyloid nucleation score is reported as “inactive”. In the case of DWRLRSFICRAVVVCCINGD, the amyloid nucleation score is reported as 1.54 ± 0.077. In the case of DWRQVYAYENSLWTVFSVWD, the amyloid nucleation score is reported as “inactive”. For DWTWMMS, the amyloid nucleation score was “inactive”. With DYGMLCSLLSGDISNSEVGI the amyloid nucleation score was “inactive”. In the case of DYIRRWLVYAYDKVFCRLTV, the amyloid nucleation score is reported as “inactive”. For DYISPYCS, the amyloid nucleation score was “inactive”. For DYRTH, the amyloid nucleation score was “inactive”. In the case of DYTMVKLLIGLSGIRTPVVR, the amyloid nucleation score is reported as “inactive”. In the case of DYVAGN, the amyloid nucleation score is reported as “inactive”. With EAKMMRDLSVLVGMPYIMTN the amyloid nucleation score was “inactive”. For EALLSSLIIFIDQRGVCEFV, the amyloid nucleation score was “inactive”. In the case of EAVSDLNVGPAVRCGG, the amyloid nucleation score is reported as “inactive”. With ECDHSCGRWNWIN the amyloid nucleation score was “inactive”. With ECLMDGSTAFSMMFFYNYML the amyloid nucleation score was “inactive”. With ECYMVCFDSCSNIMFVLDLE the amyloid nucleation score was 1.92 ± 0.095. For EDCRSR, the amyloid nucleation score was “inactive”. In the case of EDLNPSSVLYRPSIDFM, the amyloid nucleation score is reported as “inactive”. For EDRSHVAYTFFSALAQVT, the amyloid nucleation score was “inactive”. With EEGATVRTPLATRPGRTLK the amyloid nucleation score was “inactive”. With EFATLAEPDVIYYFLVFYCS the amyloid nucleation score was “inactive”. With EFHCSYLVIWYG the amyloid nucleation score was “inactive”. With EFIALSVFLLNFVSCLWSNV the amyloid nucleation score was “inactive”. With EFLGFCFPIAGYFLKDEKIG the amyloid nucleation score was “inactive”. For EFPASNLSMLGWN, the amyloid nucleation score was “inactive”. In the case of EGARSGKENGSGKPYRPLGV, the amyloid nucleation score is reported as 0.528 ± 0.22. Substance EGFFYCCHFFRLYYNVVVLL has an amyloid nucleation score of 2.02 ± 0.064. For EGGCYSPKHG, the amyloid nucleation score was 0.741 ± 0.28. For EGKIHNSRLGYFQRRLIVS, the amyloid nucleation score was “inactive”.
